What all share (test): cell-based or functional assay
Experiment [1] addresses receptor of ecotropic murine leukaemia virus Rec1 (murine) (UniProt Q09143).
Experiment [2] shares this target. This is another data set of the same source.
For experiment [3] the target is unchanged. This is another data set of the same source.

Read-outs that look alike come from different tables or passages of the source. A value given as a limit tells only on which side of the number the result lay.

Data on two substances can be found in patent US20140227786A1.

Chain of receptor of ecotropic murine leukaemia virus Rec1 (murine) (Q09143 whole entry): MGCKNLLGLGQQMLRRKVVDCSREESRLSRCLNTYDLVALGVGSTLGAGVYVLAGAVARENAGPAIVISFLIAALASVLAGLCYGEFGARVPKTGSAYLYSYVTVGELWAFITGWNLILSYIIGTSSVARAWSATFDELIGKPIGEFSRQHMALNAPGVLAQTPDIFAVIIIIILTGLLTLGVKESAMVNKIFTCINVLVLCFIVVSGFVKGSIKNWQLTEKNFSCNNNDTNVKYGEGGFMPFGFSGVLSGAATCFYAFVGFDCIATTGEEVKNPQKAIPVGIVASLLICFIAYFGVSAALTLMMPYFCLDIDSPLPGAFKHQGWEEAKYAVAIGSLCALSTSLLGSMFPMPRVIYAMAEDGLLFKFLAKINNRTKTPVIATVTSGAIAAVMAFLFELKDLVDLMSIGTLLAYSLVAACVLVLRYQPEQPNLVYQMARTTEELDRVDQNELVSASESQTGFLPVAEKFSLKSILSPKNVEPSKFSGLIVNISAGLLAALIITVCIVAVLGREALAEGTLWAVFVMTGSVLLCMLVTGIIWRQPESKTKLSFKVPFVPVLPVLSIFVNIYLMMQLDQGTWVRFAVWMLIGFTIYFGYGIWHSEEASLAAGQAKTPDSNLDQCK
Chain of envelope protein of ecotropic Friend murine leukaemia virus molecular clone PVC-211 (P26803 35-676 limits assumed): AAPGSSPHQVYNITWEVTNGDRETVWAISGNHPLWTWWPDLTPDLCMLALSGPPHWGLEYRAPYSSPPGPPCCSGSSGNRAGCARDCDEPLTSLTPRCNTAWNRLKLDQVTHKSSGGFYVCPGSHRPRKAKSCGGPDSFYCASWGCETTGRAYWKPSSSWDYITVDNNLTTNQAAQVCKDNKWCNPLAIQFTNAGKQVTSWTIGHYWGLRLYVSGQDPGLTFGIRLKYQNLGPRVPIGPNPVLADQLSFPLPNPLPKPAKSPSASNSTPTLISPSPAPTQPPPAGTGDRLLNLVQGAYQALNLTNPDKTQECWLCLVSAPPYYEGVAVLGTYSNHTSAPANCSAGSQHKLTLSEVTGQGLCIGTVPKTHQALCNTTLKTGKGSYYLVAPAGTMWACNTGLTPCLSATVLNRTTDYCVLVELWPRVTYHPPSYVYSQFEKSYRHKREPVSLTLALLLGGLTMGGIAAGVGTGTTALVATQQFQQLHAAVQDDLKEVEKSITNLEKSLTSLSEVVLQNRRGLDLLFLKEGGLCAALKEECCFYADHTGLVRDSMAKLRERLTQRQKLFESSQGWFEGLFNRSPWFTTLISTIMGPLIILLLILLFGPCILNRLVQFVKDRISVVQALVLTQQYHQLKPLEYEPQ
Chain of wild type envelope of ecotropic Moloney murine leukaemia virus (P03385 34-665 limits assumed): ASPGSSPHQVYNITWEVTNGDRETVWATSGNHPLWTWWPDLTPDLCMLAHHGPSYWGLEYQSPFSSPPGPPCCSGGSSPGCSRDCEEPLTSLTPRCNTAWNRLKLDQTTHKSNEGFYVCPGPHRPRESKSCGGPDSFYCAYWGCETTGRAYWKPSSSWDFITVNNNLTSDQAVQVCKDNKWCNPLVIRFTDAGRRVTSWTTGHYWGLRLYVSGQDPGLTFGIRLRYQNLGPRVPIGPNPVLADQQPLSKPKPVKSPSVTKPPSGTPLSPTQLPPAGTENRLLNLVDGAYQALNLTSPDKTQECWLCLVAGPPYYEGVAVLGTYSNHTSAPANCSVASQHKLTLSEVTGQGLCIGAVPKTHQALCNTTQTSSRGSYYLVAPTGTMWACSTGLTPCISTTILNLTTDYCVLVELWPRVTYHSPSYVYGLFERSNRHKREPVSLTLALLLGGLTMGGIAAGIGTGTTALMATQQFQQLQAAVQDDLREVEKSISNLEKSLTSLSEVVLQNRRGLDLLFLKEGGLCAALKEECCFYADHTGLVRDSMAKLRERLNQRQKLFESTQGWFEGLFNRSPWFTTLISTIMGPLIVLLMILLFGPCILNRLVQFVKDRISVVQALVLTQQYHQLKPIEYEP

Consider “wild type envelope of ecotropic Moloney murine leukaemia virus (from UniProt P03385 34-665)”, for which, in experiment [1], the fold gene transfer efficiency, CHO-S Rec1-I-puro cells against parental CHO-S cells was 3 fold; the fold gene transfer, CHO-S Rec1-I-puro cells against CHO-S cells turned out to be 3.7 fold; the gene transfer efficiency (% GFP positive cells) in CHO-S Rec1-I-puro cells worked out at 1.14%; the transduction efficiency (% GFP positive cells) in BHK Rec1-I-puro cells came to 4.72%. In experiment [1], the transduction efficiency (% GFP positive cells) in CHO-S Rec1-I-puro cells worked out at 0.55% and the transduction efficiency (% GFP positive cells) in HT1080 Rec1-I-neo cells amounted to 0.21%. In experiment [2], the transduction efficiency (% GFP positive cells) in CHO T-REx Rec1-I-neo cells was 9.95%, the transduction efficiency (% GFP positive cells) in CHO-K1 Rec1-I-neo cells was 14.7% and the transduction efficiency (% GFP positive cells) in CHO-S Rec1-I-puro cells stood at 12.1%. This substance registered a transduction efficiency (% GFP positive cells) in CHO-S Rec1-I-puro cells in experiment [3] of 0.56%.

As for “envelope protein of ecotropic Friend murine leukaemia virus molecular clone PVC-211 (from UniProt P26803 35-676)”, in experiment [1], the fold gene transfer efficiency, CHO-S Rec1-I-puro cells against CHO-S cells was found to be 13 fold; the fold transduction efficiency in CHO-S Rec1-I-puro cells, MLV (PVC-211 Env) against MLV (wtEnv) vector particles was > 33 fold; the puromycin-resistant cell colonies counted in ten fields, CHO-S Rec1-I-neo cells transduced once stood at 41 colonies; the puromycin-resistant cell colonies counted in ten fields, CHO-S Rec1-I-neo cells transduced three times was 230 colonies. In experiment [1], this substance gave a transduction efficiency (% GFP positive cells) in BHK Rec1-I-puro cells of 31%, a transduction efficiency (% GFP positive cells) in CHO-S Rec1-I-puro cells of 15.5% and a transduction efficiency (% GFP positive cells) in HT1080 Rec1-I-neo cells of 16%. In experiment [2], this substance had a transduction efficiency (% GFP positive cells) in CHO T-REx Rec1-I-neo cells of 71.1%, a transduction efficiency (% GFP positive cells) in CHO-K1 Rec1-I-neo cells of 48.3% and a transduction efficiency (% GFP positive cells) in CHO-S Rec1-I-puro cells of 73%. This substance also registered a transduction efficiency (% GFP positive cells) in CHO-S Rec1-I-puro cells in experiment [3] of 19%.
